± gives the uncertainty stated by the source.
Experiment: self-splicing fitness, log relative to wild type (ln ratio); higher = more splicing; Tetrahymena group I intron in knt gene, E. coli kanamycin selection, DiMSum; sequences stand for … in CUCUCU…GGAGGGAAAAGUUAUCAGGCAUGCACCUGGUAGCUAGUCUUUAAACCAAUAGAUUGCAUCGGUUUAAAAGGCAAGACCGUCAAAUUGCGGGAAAGGGGUCAACAGCCGUUCAGUACCAAGUCUCAGGGGAAACUUUGAGAUGGCCUUGCAAAGGGUAUGGUAAUAAGCUGACGGACAUGGUCCUAACCACGCAGCCAAGUCCUAAGUCAACAGAUCUUCUGUUGAUAUGGAUGCAGUUCACAGACUAAAUGUCGGUCGGGGAAGAUGUAUUCUUCUCAUAAGAUAUAGUCGGACCUCUCCUUAAUGGGAGCUAGCGGAUGAAGUGAUGCAACACUGGAGCCGCUGGGAACUAAUUUGUAUGCGAAAGUAUAUUGAUUAGUUUUGGAGUACUCGUGGUCG
In short: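 Library with all eight P1ex-region intron nucleotides randomised, intron inside the knt kanamycin-resistance gene on pET-22b(+), in E. coli BL21(DE3). Cells grew overnight at 37°C or 30°C on LB agar with or without 25 μg/mL kanamycin (plus 100 μg/mL carbenicillin, 50 μM IPTG, 0.2% rhamnose), in six replicate transformations. Pooled colonies were amplicon-sequenced on Illumina HiSeq 2500. DiMSum fitness is the error-weighted combination of wild-type-normalised replicate fold changes, kanamycin versus none.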

Row | Sequence | self-splicing fitness (ln) (30 °C) | self-splicing fitness (ln) (37 °C)
1 | GCACAGCAAUAUUACGGGAC | -1.04 ± 0.068 | -1.35 ± 0.098
2 | CCCUAGCAAUAUUACGACAU | -3.809 ± 0.024 | -2.93 ± 0.039
3 | GCAUAGCAAUAUUACGCGGG | -3.23 ± 0.14 | -0.875 ± 0.11
4 | CUAAAGCAAUAUUACGCAGC | -3.5 ± 0.33 | -2.3 ± 0.44
5 | UUGCAGCAAUAUUACGAUUG | -1.62 ± 0.32 | -0.337 ± 0.21
6 | CGAGAGCAAUAUUACGAAAG | -3.64 ± 0.4 | -1.55 ± 0.31
7 | UCCCAGCAAUAUUACGACUC | -3.89 ± 0.25 | -1.91 ± 0.24
8 | AACUAGCAAUAUUACGCGAU | -2.64 ± 0.15 | -2.22 ± 0.17
9 | CACAAGCAAUAUUACGACGC | -2.86 ± 0.32 | -1.17 ± 0.18
10 | UAGCAGCAAUAUUACGGGUA | -0.507 ± 0.052 | 0.13 ± 0.057
11 | GAAGAGCAAUAUUACGUGCG | -2.87 ± 0.15 | -2.03 ± 0.17
12 | GCGCAGCAAUAUUACGCAAG | -3.82 ± 0.23 | -2.52 ± 0.15
13 | GAGCAGCAAUAUUACGUGUG | -3.28 ± 0.12 | -0.789 ± 0.11
14 | CAAGAGCAAUAUUACGAACU | -3.41 ± 0.27 | -2.11 ± 0.26
15 | CUUAAGCAAUAUUACGAUGU | -3.88 ± 0.37 | -0.792 ± 0.21
16 | UUUGAGCAAUAUUACGUAAU | -3.94 ± 0.43 | -1.65 ± 0.23
17 | ACGUAGCAAUAUUACGCCCA | -0.614 ± 0.12 | -0.952 ± 0.14
18 | UGCAAGCAAUAUUACGUUGA | -2.47 ± 0.1 | -1.32 ± 0.11
19 | UAGAAGCAAUAUUACGAGGG | -3.17 ± 0.18 | -2.62 ± 0.21
20 | UCUGAGCAAUAUUACGGUAG | -3.93 ± 0.33 | -1.67 ± 0.18
21 | CCGAAGCAAUAUUACGGAAA | -3.26 ± 0.26 | -3.49 ± 0.31

Row | Sequence | self-splicing fitness (ln) (30 °C) | self-splicing fitness (ln) (37 °C)
22 | CGGCAGCAAUAUUACGACGA | -1 ± 0.11 | -1.41 ± 0.14
23 | UGGGAGCAAUAUUACGGUUG | -2.07 ± 0.22 | –
24 | UUAUAGCAAUAUUACGCUAU | -3.51 ± 0.44 | -4.04 ± 0.46
25 | GAUGAGCAAUAUUACGGCUU | -2.34 ± 0.14 | -1.12 ± 0.14
26 | CCUUAGCAAUAUUACGGUGU | -3.82 ± 0.24 | -2.81 ± 0.23
27 | ACCGAGCAAUAUUACGUCUC | -3.22 ± 0.32 | -2.77 ± 0.48
28 | CACCAGCAAUAUUACGGAGG | -1.85 ± 0.078 | -1.4 ± 0.11
29 | UAGAAGCAAUAUUACGUCUU | -1.18 ± 0.072 | -0.782 ± 0.085
30 | AGACAGCAAUAUUACGUAAU | -1.3 ± 0.05 | -0.92 ± 0.071
31 | CUAAAGCAAUAUUACGCCGC | -2.9 ± 0.22 | –
32 | CGAAAGCAAUAUUACGUAUC | -3.76 ± 0.2 | -3.21 ± 0.23
33 | GCCCAGCAAUAUUACGUAGU | -0.118 ± 0.051 | -0.0932 ± 0.066
34 | AGAAAGCAAUAUUACGGAUG | -2.93 ± 0.14 | -2.04 ± 0.14
35 | AGCCAGCAAUAUUACGAACA | -2.8 ± 0.24 | -1.98 ± 0.33
36 | CCUGAGCAAUAUUACGAACC | -3.35 ± 0.3 | –
37 | CCGUAGCAAUAUUACGAGGA | -2.96 ± 0.24 | -1.24 ± 0.18
38 | AGUCAGCAAUAUUACGACAA | -0.509 ± 0.098 | 0.177 ± 0.13
39 | AAGGAGCAAUAUUACGUUUG | -3.57 ± 0.42 | -2.82 ± 0.23
40 | ACUGAGCAAUAUUACGCUCG | -2.59 ± 0.24 | -1.59 ± 0.23
41 | UAGCAGCAAUAUUACGUUAG | -3.08 ± 0.12 | -1.34 ± 0.13
42 | UGUCAGCAAUAUUACGAAAA | -1.06 ± 0.095 | -0.75 ± 0.096

Row | Sequence | self-splicing fitness (ln) (30 °C) | self-splicing fitness (ln) (37 °C)
43 | CCAUAGCAAUAUUACGUGCC | – | -2.41 ± 0.41
44 | AACCAGCAAUAUUACGAUCC | -0.433 ± 0.078 | -0.358 ± 0.12
45 | UGGCAGCAAUAUUACGUCUG | -1.31 ± 0.082 | -0.936 ± 0.11
46 | AGUAAGCAAUAUUACGACAU | -0.346 ± 0.013 | -0.078 ± 0.033
47 | GGUUAGCAAUAUUACGAGUU | -1.87 ± 0.15 | -0.221 ± 0.12
48 | UCAUAGCAAUAUUACGCAAA | -2.54 ± 0.25 | -1.72 ± 0.3
49 | UUCCAGCAAUAUUACGCUCA | -0.327 ± 0.068 | 0.143 ± 0.089
50 | AUCUAGCAAUAUUACGCUGC | -2.92 ± 0.24 | -1.66 ± 0.18
51 | UGCUAGCAAUAUUACGUUCC | – | -0.823 ± 0.42
52 | UCCUAGCAAUAUUACGCCAU | -2.5 ± 0.3 | -0.725 ± 0.35
53 | ACUUAGCAAUAUUACGAUAC | -3.82 ± 0.42 | -2.28 ± 0.26
54 | CGCGAGCAAUAUUACGAACC | – | -0.306 ± 0.33
55 | GAUGAGCAAUAUUACGGGGG | -4.46 ± 0.34 | -1.44 ± 0.25
56 | ACUCAGCAAUAUUACGCACG | -1 ± 0.078 | -0.784 ± 0.13
57 | AGCUAGCAAUAUUACGGUUG | -1.95 ± 0.075 | -1.37 ± 0.11
58 | CCGCAGCAAUAUUACGCAAC | -3.22 ± 0.19 | -3.07 ± 0.32
59 | GGGAAGCAAUAUUACGCUGU | -2.38 ± 0.14 | -1.45 ± 0.16
60 | UUUAAGCAAUAUUACGCCGU | -1.49 ± 0.41 | -1.84 ± 0.27
61 | GUCAAGCAAUAUUACGCCGG | – | -0.94 ± 0.36
62 | AGCAAGCAAUAUUACGUCUC | -2.61 ± 0.29 | –
